How the values were obtained:
[1] = target: Muromonab; assay: SPR
[2] = target: nanobody‐based trispecific T cell engager (Nb‐TriTE) (human, UniProt P01857 = IgG part); assay: SPR

Kd [1]: 7.68 nM
Kd [2]: 0.337 nM
B1: rhCD3 (protein)
chain: DGNEEMGGITQTPYKVSISGTTVILTCPQYPGSEILWQHNDKNIGGDEDDKNIGSDEDHLSLKEFSELEQSGYYVCYPRGSKPEDANFYLYLRARVCENCMEMD

From PMC11538689 (2024)
